Drawing on the supplement of paper PMC10724198, this text covers protein stability index for 116 sequences.

± gives the standard deviation of the averaged measurements.
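Note: PSI is a weighted mean of sequencing reads over stability bins, variants kept only with over 10 reads, mCherry proximal and sfGFP distal, peptide attached via GGGS linker.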

This data set concerns Saccharomyces cerevisiae. The experiment in a line: protein stability index of tFT-peptide fusion (C-terminal peptide) (PSI (0-1 scale)); higher = more stable (slower turnover). The note with it: genetic background: wild type; temperature: 30 C. The procedure: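 Multiplexed protein stability (MPS) profiling in S. cerevisiae. Random 12-aa peptides (tFT-X12 library) are fused to the C-terminus of a sfGFP-mCherry tandem fluorescent timer, after mCherry and a GGGS linker. Cells are FACS-sorted into 8 mCherry/sfGFP bins and deep-sequenced. The protein stability index (PSI) is the read-weighted bin average, scaled from 0 (unstable) to 1 (stable). Only peptides with >10 reads are reported; cells were grown at 30 °C in SC-His with glucose.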
ATMGRKSLRDRF had a protein stability index of 0.679 ± 0.012.
Next, ATSCLPLPSCPG: 0.726 ± 0.019; ATSSNFGVWVHV: 0.69 ± 0.048; AVACGGASGCGC: 0.707 ± 0.071.
Next, AVCWGGSVGGVG: 0.69898 ± 0.00012; AVEGVSEVSLSG: 0.656 ± 0.019.
For AVGQGAGSWGWE, the protein stability index amounted to 0.691 ± 0.049.
AVGRGGVGAEGA: the protein stability index was 0.65 ± 0.011.
Take AVGWGGLKGRVG: the protein stability index worked out at 0.7 ± 0.037.
Next, AVKMLGRGLVLV: 0.624 ± 0.032.
Next, AVPLFRSVSRTS: 0.667 ± 0.11; AVPSLYLLPFSF: 0.69 ± 0.037.
The sequence AVRFISRLPPPA registered a protein stability index of 0.686 ± 0.078.
In turn, AVSPISLSDNIG came in with a protein stability index of 0.664 ± 0.018.
For the sequence AVSRSLTGVRFL, the protein stability index came to 0.697 ± 0.025.
Sequence AVTAFDMGGSRN registered a protein stability index of 0.672 ± 0.12.
On to AVVSRVPRLFRL, for which the protein stability index stood at 0.724 ± 0.045.
Regarding AVVYIRVEVPGA, the protein stability index worked out at 0.498 ± 0.017.
For the sequence AVWLEAVSVSLS, the protein stability index is 0.612 ± 0.012.
Next, AVWRVSGPFTDA: 0.685 ± 0.071.
AVYSDCARNITW: the protein stability index came out at 0.714 ± 0.047.
For AWFIRSLVAYFL, the protein stability index is 0.545 ± 0.017.
Take AWGLDGCQLCFS: the protein stability index worked out at 0.751 ± 0.11.
AYLNPFTSALTA yielded a protein stability index of 0.616 ± 0.028.
The sequence AYTWVMTGAWLL registered a protein stability index of 0.586 ± 0.015.
CAAIHFLLPTYP: the protein stability index amounted to 0.69 ± 0.054.
Regarding CAAYIQNLPFPF, the protein stability index was 0.727 ± 0.019.
Consider CAEGMCCCRGVG, for which the protein stability index was found to be 0.56 ± 0.013.
Turning to CAGGLFAVVTPS, the protein stability index turned out to be 0.682 ± 0.043.
Turning to CARAGLGFRWVG, the protein stability index was found to be 0.621 ± 0.031.
Regarding CARPVLSAGSWQ, the protein stability index worked out at 0.673 ± 0.065.
The sequence CCFAGFAVWSVD displayed a protein stability index of 0.7 ± 0.019.
Take CCLLYPAVYTTQ: the protein stability index was determined as 0.62 ± 0.046.
In turn, CCPLRLPRSRGY yielded a protein stability index of 0.705 ± 0.055.
Next, CCSWPSRLLLEG: 0.722 ± 0.026; CCVVFMGLGGGR: 0.673 ± 0.0085; CCYSSLRLMSFL: 0.536 ± 0.014.
The sequence CDDIIKGEIRIM yielded a protein stability index of 0.722 ± 0.041.
CDFYGCAPAPRL showed a protein stability index of 0.7945 ± 0.0077.
Next, CDHLSLCDDLFA: 0.753 ± 0.065.
Next, CDQVSDGSMGTV: 0.634 ± 0.04.
The sequence CDTIPNPLYKYD showed a protein stability index of 0.75 ± 0.055.
Next, CDYAWSSSASLG: 0.56 ± 0.017.
For the sequence CECANLIAHFCV, the protein stability index stood at 0.6253 ± 0.0059.
For CECVGGFGFLGS, the protein stability index turned out to be 0.682 ± 0.031.
In the case of CEITISQEQSAS, the protein stability index was found to be 0.624 ± 0.022.
CFGFRVFGFVFF yielded a protein stability index of 0.561 ± 0.075.
In turn, CFGGGVGWFPLG had a protein stability index of 0.698 ± 0.0076.
CFGSRDSSFGHT: the protein stability index was 0.763 ± 0.13.
CFLIFQRSWLFR had a protein stability index of 0.576 ± 0.066.
Next, CFNGRVGGGGMR: 0.636 ± 0.086.
Sequence CFPALSSRTFPS showed a protein stability index of 0.7521 ± 0.0047.
The sequence CFPPVGPTSPTI yielded a protein stability index of 0.745 ± 0.022.
Regarding CFSFLEYCTSLP, the protein stability index came out at 0.704 ± 0.012.
CGEGVCVTGWSR: the protein stability index was found to be 0.68 ± 0.028.
For CGFGVSHASRIF, the protein stability index stood at 0.78 ± 0.012.
Turning to CGGAKLPEQCQK, the protein stability index amounted to 0.6813 ± 0.0022.
On to CGLCDISFDLVM, for which the protein stability index was found to be 0.626 ± 0.027.
In the case of CGLSAGIVLFFC, the protein stability index stood at 0.58 ± 0.012.
On to CGQEQGCEGAVD, for which the protein stability index turned out to be 0.658 ± 0.12.
With CGRERIEGGGGD, the protein stability index is 0.643 ± 0.1.
The sequence CGRPPPLFAFIP registered a protein stability index of 0.701 ± 0.037.
CGTPWHSITCSA returned a protein stability index of 0.55 ± 0.012.
CGTYPTFCGLGV: the protein stability index is 0.68 ± 0.068.
With CGVCRGSCGGYG, the protein stability index turned out to be 0.583 ± 0.016.
On to CGVCSAGIFVGG, for which the protein stability index was 0.761 ± 0.026.
CGVFAGRVGVRV: the protein stability index stood at 0.6003 ± 0.0017.
Consider CGVMLFGLGCLW, for which the protein stability index amounted to 0.6321 ± 0.00042.
The sequence CGVSRIGLAGDV came in with a protein stability index of 0.671 ± 0.039.
As to CGWIQYSVSHDL, the protein stability index turned out to be 0.712 ± 0.059.
Next, CHNVIEKIRNNK: 0.657 ± 0.1.
With CHPFGLPFMLEF, the protein stability index is 0.721 ± 0.026.
Next, CHSIEGSEPREA: 0.694 ± 0.085; CIATINKMTRRI: 0.67 ± 0.11; CIRSRHRRQSKG: 0.67 ± 0.088.
CISPPRHAPPPP: the protein stability index is 0.637 ± 0.092.
Sequence CKCKLNKKTTKS showed a protein stability index of 0.701 ± 0.05.
Regarding CKEGLGSGRWGR, the protein stability index came to 0.717 ± 0.018.
In turn, CKKGVEIIEREK came in with a protein stability index of 0.632 ± 0.026.
Next, CLCLTCMLDFYL: 0.553 ± 0.0092; CLEEVVCRVRGA: 0.643 ± 0.0096; CLFPVSLPCPTN: 0.714 ± 0.018.
CLGPTVYGRSTF returned a protein stability index of 0.728 ± 0.025.
Take CLICLRSRMGDC: the protein stability index was determined as 0.642 ± 0.024.
CLIGYFPYRLVL: the protein stability index worked out at 0.502 ± 0.025.
CLLCLPPPRSLS had a protein stability index of 0.69 ± 0.034.
Next, CLPLFISPFLLG: 0.677 ± 0.0068; CLPPPARLPAPR: 0.683 ± 0.033.
Sequence CLSGLIIMPSVG returned a protein stability index of 0.675 ± 0.035.
Next, CLSPSSHLPSVT: 0.685 ± 0.021; CLTGSVLVICGN: 0.551 ± 0.06; CLVDSSSFSLIF: 0.742 ± 0.065.
Sequence CLVGWAVAVLGD had a protein stability index of 0.458 ± 0.068.
With CLVIDDPFLVPF, the protein stability index was found to be 0.6988 ± 0.001.
Next, CLVRIIRREIKG: 0.575 ± 0.018; CMCFFMGGWWCV: 0.608 ± 0.0067; CMFPVSHRLLYL: 0.615 ± 0.047.
On to CMGRCGVCCERS, for which the protein stability index is 0.711 ± 0.045.
Next, CMWDAVGFALRS: 0.72 ± 0.011.
Next, CPGNRQEMLKSR: 0.676 ± 0.0083.
CPLPTAFRSTHV displayed a protein stability index of 0.691 ± 0.019.
Next, CPRLDVSSGFSW: 0.694 ± 0.025; CPTVLWPRSPRN: 0.688 ± 0.027.
Next, CQPNRKRETRGN: 0.732 ± 0.064.
For the sequence CQSARCLPFLLY, the protein stability index is 0.585 ± 0.026.
Sequence CQVTDYLVLDWG displayed a protein stability index of 0.727 ± 0.038.
In turn, CQYKRRLKTTET yielded a protein stability index of 0.732 ± 0.0085.
The sequence CRGPRASRRRGR gave a protein stability index of 0.629 ± 0.04.
With CRHPYTSTTRLA, the protein stability index worked out at 0.68 ± 0.025.
CRKLSIPLRGQS displayed a protein stability index of 0.6627 ± 0.0044.
As to CRQCKGTDGDDQ, the protein stability index came to 0.673 ± 0.04.
CRSGERSHKMLL: the protein stability index amounted to 0.63 ± 0.011.
Turning to CRSRRIVGPDSR, the protein stability index was 0.669 ± 0.015.
The sequence CSAALTTLLDFA gave a protein stability index of 0.715 ± 0.018.
Next, CSAVVPASARTP: 0.606 ± 0.019; CSDRCHNLLLDA: 0.705 ± 0.059.
